# Experimental data: patent US20210070881A1 (DENALI THERAPEUTICS, published 2021)
# Positions count from the first letter of the chain named. Like-named read-outs stand apart in the source and are kept apart here.
# B1: hu2H8v1 (antibody, V domains shown)
# VH: QVQLVQSGAEVKKPGASVKVSCKASGYTFTNFWIHWVRQAPGQGLEWMGMIDPSDSYTKYNQKFKARVTMTRDTSTSTTYMELSSLRSEDTAVYYCARSGVAFPYWGQGTLVTVSS
# VL: DIQMTQSPSSLSASVGDRVTITCKASQDVGRNVAWYQQKPGKAPKLLIYSASHRYSGVPSRFSGSGSGTDFTLTISSLQPEDFATYYCQQYNSYPYTFGQGTKVEIK
# notes: humanized; also called hu2H8_HC1 + hu2H8_LC1
# B2: hu2H8v13 (antibody, V domains shown)
# VH: B1 VH
# VL: B1 VL with L46S
# notes: humanized; also called hu2H8_HC1 + hu2H8_LC3
# B3: hu2H8v23 (antibody, V domains shown)
# VH: B1 VH with V68A, M70L, R72V, T79V
# VL: B1 VL with A43S, L46S
# notes: humanized; also called hu2H8_HC6 + hu2H8_LC4
# B4: hu2H8v22 (antibody, V domains shown)
# VH: B1 VH with V68A, M70L, T79V
# VL: B1 VL with A43S, L46S
# notes: humanized; also called hu2H8_HC5 + hu2H8_LC4
# B5: hu2H8v30 (antibody, V domains shown)
# VH: B1 VH with V37L, V68A, M70L, R72V
# VL: B1 VL with A43S, L46S, Y87F
# notes: humanized; also called hu2H8_HC7 + hu2H8_LC5
# B6: hu2H8v14 (antibody, V domains shown)
# VH: B1 VH with V37L
# VL: B1 VL with L46S
# notes: humanized; also called hu2H8_HC2 + hu2H8_LC3
# B7: hu2H8v12 (antibody, V domains shown)
# VH: B1 VH with V37L, V68A, M70L, R72V
# VL: B1 VL with A43S
# notes: humanized; also called hu2H8_HC7 + hu2H8_LC2
# B8: hu2H8v19 (antibody, V domains shown)
# VH: B1 VH
# VL: B1 VL with A43S, L46S
# notes: humanized; also called hu2H8_HC1 + hu2H8_LC4
# B9: hu2H8v3 (antibody, V domains shown)
# VH: B1 VH with V37L, R72V
# VL: B1 VL
# notes: humanized; also called hu2H8_HC3 + hu2H8_LC1
# B10: hu2H8v11 (antibody, V domains shown)
# VH: B1 VH with V68A, M70L, R72V, T79V
# VL: B1 VL with A43S
# notes: humanized; also called hu2H8_HC6 + hu2H8_LC2
# B11: hu2H8v4 (antibody, V domains shown)
# VH: B1 VH with V68A, M70L, T79V
# VL: B1 VL
# notes: humanized; also called hu2H8_HC5 + hu2H8_LC1
# B12: hu2H8v25 (antibody, V domains shown)
# VH: B1 VH
# VL: B1 VL with A43S, L46S, Y87F
# notes: humanized; also called hu2H8_HC1 + hu2H8_LC5
# B13: hu2H8v20 (antibody, V domains shown)
# VH: B1 VH with V37L
# VL: B1 VL with A43S, L46S
# notes: humanized; also called hu2H8_HC2 + hu2H8_LC4
# B14: hu2H8v28 (antibody, V domains shown)
# VH: B1 VH with V68A, M70L, T79V
# VL: B1 VL with A43S, L46S, Y87F
# notes: humanized; also called hu2H8_HC5 + hu2H8_LC5
# B15: hu2H8v24 (antibody, V domains shown)
# VH: B1 VH with V37L, V68A, M70L, R72V
# VL: B1 VL with A43S, L46S
# notes: humanized; also called hu2H8_HC7 + hu2H8_LC4
# B16: hu2H8v5 (antibody, V domains shown)
# VH: B1 VH with V68A, M70L, R72V, T79V
# VL: B1 VL
# notes: humanized; also called hu2H8_HC6 + hu2H8_LC1
# B17: hu2H8v2 (antibody, V domains shown)
# VH: B1 VH with V37L
# VL: B1 VL
# notes: humanized; also called hu2H8_HC2 + hu2H8_LC1
# B18: hu2H8v7 (antibody, V domains shown)
# VH: B1 VH
# VL: B1 VL with A43S
# notes: humanized; also called hu2H8_HC1 + hu2H8_LC2
# B19: hu2H8v21 (antibody, V domains shown)
# VH: B1 VH with V37L, R72V
# VL: B1 VL with A43S, L46S
# notes: humanized; also called hu2H8_HC3 + hu2H8_LC4
# B20: hu2H8v18 (antibody, V domains shown)
# VH: B1 VH with V37L, V68A, M70L, R72V
# VL: B1 VL with L46S
# notes: humanized; also called hu2H8_HC7 + hu2H8_LC3
# B21: hu2H8v9 (antibody, V domains shown)
# VH: B1 VH with V37L, R72V
# VL: B1 VL with A43S
# notes: humanized; also called hu2H8_HC3 + hu2H8_LC2
# B22: hu2H8v16 (antibody, V domains shown)
# VH: B1 VH with V68A, M70L, T79V
# VL: B1 VL with L46S
# notes: humanized; also called hu2H8_HC5 + hu2H8_LC3
# B23: hu2H8v15 (antibody, V domains shown)
# VH: B1 VH with V37L, R72V
# VL: B1 VL with L46S
# notes: humanized; also called hu2H8_HC3 + hu2H8_LC3
# B24: hu2H8v10 (antibody, V domains shown)
# VH: B1 VH with V68A, M70L, T79V
# VL: B1 VL with A43S
# notes: humanized
# B25: hu2H8v26 (antibody, V domains shown)
# VH: B1 VH with V37L
# VL: B1 VL with A43S, L46S, Y87F
# notes: humanized; also called hu2H8_HC2 + hu2H8_LC5
# B26: hu2H8v8 (antibody, V domains shown)
# VH: B1 VH with V37L
# VL: B1 VL with A43S
# notes: humanized; also called hu2H8_HC2 + hu2H8_LC2
# B27: hu2H8v6 (antibody, V domains shown)
# VH: B1 VH with V37L, V68A, M70L, R72V
# VL: B1 VL
# notes: humanized; also called hu2H8_HC7 + hu2H8_LC1
# B28: 2H8.31 (antibody, human IgG1, V domains shown)
# VH: EVQLQQSGPELVKPGASVKLSCKASGYTFTNFWIHWLKQRPGQGLEWIGMIDPSDSYTKYNQKFKAKATLTVDTSSSTTYMHLSSLTSEDSAVYYCARSGVAFPYWGQRTLVTVSA
# VL: DIQMTQSQKFMSKSVGDRVSVTCKASQNVGSNVAWYQQKSGQSPKSLIYSASHRYSGVPDRFTGSGSGTDFTLTISNVQSEDLADYFCQQYNSYPYTFGGGTRLEIK
# notes: human IgG1/kappa; also called 2H8_HC + 2H8_LCvar6
# B29: 2H8.15 (antibody, human IgG1, V domains shown)
# VH: B28 VH with P9A, K13R, A16T, N31S, F32Y, L37V, A66D
# VL: B28 VL with K13T, V15I, S31T, S40P, R54W, D85E, R103K
# notes: human IgG1/kappa; also called 2H8_HCvar3 + 2H8_LCvar3
# B30: 2H8.09 (antibody, human IgG1, V domains shown)
# VH: B28 VH with P9A, K13R, A16T, N31S, F32Y, L37V, A66D
# VL: B28 VL with Q3V, K13T, S31T, S40P, S46A, D85E, P95M, R103K
# notes: human IgG1/kappa; also called 2H8_HCvar3 + 2H8_LCvar2
# B31: 2H8.16 (antibody, human IgG1, V domains shown)
# VH: EIQLQQSGTELVRPGTSVKLSCKASGYTFTNYWMHWVKQRPGQGLEWIGMIDPSAAYTNYNQNFKGKATLTVDTSSGTAYMQLSSLTSEDSAVYYCARSGVAFPYWGQGTTVTVSS
# VL: B28 VL with K13T, V15I, S31T, S40P, R54W, D85E, R103K
# notes: human IgG1/kappa; also called 2H8_HCvar4 + 2H8_LCvar3
# B32: 2H8.21 (antibody, human IgG1, V domains shown)
# VH: B28 VH with P9A, K13R, A16T, N31S, F32Y, L37V, A66D
# VL: B28 VL with Q3V, K13T, V21I, S31T, S40P, S46A, H53Y, D85E, R103K
# notes: human IgG1/kappa; also called 2H8_HCvar3 + 2H8_LCvar4
# B33: 2H8.34 (antibody, human IgG1, V domains shown)
# VH: B31 VH
# VL: B28 VL
# notes: human IgG1/kappa; also called 2H8_HCvar4 + 2H8_LCvar6
# B34: 2H8.27 (antibody, human IgG1, V domains shown)
# VH: B28 VH with P9A, K13R, A16T, N31S, F32Y, L37V, A66D
# VL: B28 VL with Q3V, K13T, S31T, S46A, D85E, R103K
# notes: human IgG1/kappa; also called 2H8_HCvar3 + 2H8_LCvar5
# B35: 2H8.40 (antibody, human IgG1, V domains shown)
# VH: B31 VH
# VL: B28 VL with Q3L, K13T, S31R, K39I, S46P, A84V, D85E, Y86F, R103K
# notes: human IgG1/kappa; also called 2H8_HCvar4 + 2H8_LCvar7
# B36: 2H8.18 (antibody, human IgG1, V domains shown)
# VH: EVQLQQSGAELVRPGTSVKLSCKASGYTFNNYWMHWVKQRPGQGLEWIGMIDPSDDDIKNNQKFKGKATLTVDTSSSTAYMQLISLTSEDSAVYYCARSGVALPYWGQGTLVTVSA
# VL: B28 VL with K13T, V15I, S31T, S40P, R54W, D85E, R103K
# notes: human IgG1/kappa; also called 2H8_HCvar6 + 2H8_LCvar3
# B37: 2H8.12 (antibody, human IgG1, V domains shown)
# VH: B36 VH
# VL: B28 VL with Q3V, K13T, S31T, S40P, S46A, D85E, P95M, R103K
# notes: human IgG1/kappa; also called 2H8_HCvar6 + 2H8_LCvar2
# B38: 2H8.36 (antibody, human IgG1, V domains shown)
# VH: B36 VH
# VL: B28 VL
# notes: human IgG1/kappa; also called 2H8_HCvar6 + 2H8_LCvar6
# B39: 2H8.24 (antibody, human IgG1, V domains shown)
# VH: B36 VH
# VL: B28 VL with Q3V, K13T, V21I, S31T, S40P, S46A, H53Y, D85E, R103K
# notes: human IgG1/kappa; also called 2H8_HCvar6 + 2H8_LCvar4
# How the values were obtained:
# [1] = biological target: T1, recombinant BACE1 (BACE1 extracellular domain, R&D Systems Cat#931-AS) (UniProt P56817 22-457); test: SPR Biacore
# T1 construct: extracellular domain; also called BACE1 extracellular domain protein
# [2] = biological target: T1, recombinant BACE1 (BACE1 extracellular …); test: SPR Biacore; remark: listed apart in the source
# [3] = biological target: cellular BACE1 in CHOK1-huAPP cells; test: cell-based or functional assay
# T1 sequence (P56817 22-457): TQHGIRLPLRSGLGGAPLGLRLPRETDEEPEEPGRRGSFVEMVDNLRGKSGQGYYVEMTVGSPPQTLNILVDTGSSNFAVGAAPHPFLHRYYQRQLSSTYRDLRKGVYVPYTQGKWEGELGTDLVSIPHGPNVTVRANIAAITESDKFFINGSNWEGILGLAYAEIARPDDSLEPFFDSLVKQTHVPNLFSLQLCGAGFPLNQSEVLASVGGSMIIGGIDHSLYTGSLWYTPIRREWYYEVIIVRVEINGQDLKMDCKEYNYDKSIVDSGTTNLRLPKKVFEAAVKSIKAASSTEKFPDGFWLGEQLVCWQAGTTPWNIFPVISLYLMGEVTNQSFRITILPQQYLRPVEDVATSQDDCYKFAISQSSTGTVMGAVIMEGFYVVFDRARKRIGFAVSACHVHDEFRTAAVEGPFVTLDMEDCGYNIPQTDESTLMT
Binder,Kd [1] [µM],Kd [2] [µM],koff [2] [s⁻¹],kon [2] [M⁻¹ s⁻¹],also measured
B1,0.135,–,–,–,–
B2,0.0228,–,–,–,–
B3,0.028,–,–,–,–
B4,0.0219,–,–,–,–
B5,0.0237,–,–,–,–
B6,0.0177,–,–,–,–
B7,0.171,–,–,–,–
B8,0.0174,–,–,–,–
B9,0.172,–,–,–,–
B10,0.0883,–,–,–,–
B11,0.169,–,–,–,–
B12,0.0221,–,–,–,–
B13,0.0132,–,–,–,–
B14,0.0195,–,–,–,–
B15,0.074,–,–,–,–
B16,0.0963,–,–,–,–
B17,0.185,–,–,–,–
B18,0.15,–,–,–,–
B19,0.0135,–,–,–,–
B20,0.0207,–,–,–,–

Binder,Kd [1] [µM],Kd [2] [µM],koff [2] [s⁻¹],kon [2] [M⁻¹ s⁻¹],also measured
B21,0.13,–,–,–,–
B22,0.0256,–,–,–,–
B23,0.0164,–,–,–,–
B24,0.16,–,–,–,–
B25,0.0163,–,–,–,–
B26,0.155,–,–,–,–
B27,0.109,–,–,–,–
B28,–,0.0111,0.000168,15200,IC50 [3]: 0.033 µM; Max. % inhibition [3]: 94%
B29,–,0.0228,0.000278,12200,–
B30,–,0.0183,0.000228,12500,–
B31,–,0.0378,0.000631,16700,–
B32,–,0.0905,0.00104,11400,–
B33,–,0.0255,0.000425,16700,–
B34,–,0.017,0.00024,14100,–
B35,–,0.0191,0.000456,23900,–
B36,–,0.0324,0.00039,12000,–
B37,–,0.171,0.00166,9680,–
B38,–,0.0235,0.000273,11600,–
B39,–,0.183,0.00243,13300,–
